Tests used:
Assay in all cases: cell-based or functional assay
[1] = target: T1, gHgLpUL128pUL130 (HEK293T cells transfected with the HCMV genes) (HCMV, UniProt P12824 24-743; P16832 31-278; P16837 1-171; P16772 1-214)
T1 sequence (looked up) 1: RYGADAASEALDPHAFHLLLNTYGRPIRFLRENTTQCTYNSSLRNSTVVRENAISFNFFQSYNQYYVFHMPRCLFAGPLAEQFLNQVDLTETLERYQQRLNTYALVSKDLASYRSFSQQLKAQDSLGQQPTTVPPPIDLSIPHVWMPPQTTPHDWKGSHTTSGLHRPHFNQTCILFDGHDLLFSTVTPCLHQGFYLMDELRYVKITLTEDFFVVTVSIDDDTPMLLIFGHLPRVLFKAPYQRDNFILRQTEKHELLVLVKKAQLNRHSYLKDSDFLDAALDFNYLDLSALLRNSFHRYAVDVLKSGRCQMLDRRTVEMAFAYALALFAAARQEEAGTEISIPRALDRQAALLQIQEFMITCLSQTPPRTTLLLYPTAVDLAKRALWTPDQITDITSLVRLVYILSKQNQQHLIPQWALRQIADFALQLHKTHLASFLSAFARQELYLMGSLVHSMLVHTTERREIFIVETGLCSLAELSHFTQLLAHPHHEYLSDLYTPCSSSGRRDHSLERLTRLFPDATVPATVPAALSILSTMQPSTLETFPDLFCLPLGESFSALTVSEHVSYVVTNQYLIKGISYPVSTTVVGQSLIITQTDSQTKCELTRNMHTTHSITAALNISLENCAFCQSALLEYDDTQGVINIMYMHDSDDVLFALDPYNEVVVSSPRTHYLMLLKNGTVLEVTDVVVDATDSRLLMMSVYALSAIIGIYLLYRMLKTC
T1 sequence (looked up) 2: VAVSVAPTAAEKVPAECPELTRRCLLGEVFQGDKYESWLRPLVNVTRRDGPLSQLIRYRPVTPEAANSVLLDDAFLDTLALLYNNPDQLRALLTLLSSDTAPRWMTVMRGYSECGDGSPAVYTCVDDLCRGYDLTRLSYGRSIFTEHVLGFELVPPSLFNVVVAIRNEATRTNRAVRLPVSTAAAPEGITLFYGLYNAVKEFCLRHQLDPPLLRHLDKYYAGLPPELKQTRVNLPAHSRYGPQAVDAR
T1 sequence (looked up) 3: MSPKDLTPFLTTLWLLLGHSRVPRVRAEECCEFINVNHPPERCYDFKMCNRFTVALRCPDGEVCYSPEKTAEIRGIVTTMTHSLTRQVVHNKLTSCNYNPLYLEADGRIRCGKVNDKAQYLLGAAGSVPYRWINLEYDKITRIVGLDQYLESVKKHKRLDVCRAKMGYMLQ
T1 sequence (looked up) 4: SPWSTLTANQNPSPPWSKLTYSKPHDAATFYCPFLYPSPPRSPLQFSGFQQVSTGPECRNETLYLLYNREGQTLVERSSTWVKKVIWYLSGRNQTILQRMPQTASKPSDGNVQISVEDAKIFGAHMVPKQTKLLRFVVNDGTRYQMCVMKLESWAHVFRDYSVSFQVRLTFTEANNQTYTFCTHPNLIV

[2] = target: T2, pUL128 (HEK293T cells transfected with the HCMV gene) (HCMV, UniProt P16837 1-171, limits assumed)
T2 sequence (looked up): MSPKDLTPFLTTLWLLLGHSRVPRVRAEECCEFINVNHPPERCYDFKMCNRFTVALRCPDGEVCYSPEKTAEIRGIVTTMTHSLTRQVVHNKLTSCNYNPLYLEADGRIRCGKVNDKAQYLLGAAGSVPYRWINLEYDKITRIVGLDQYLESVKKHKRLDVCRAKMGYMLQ

[3] = target: T3, pUL130pUL131 (HEK293T cells transfected with the HCMV genes) (HCMV, UniProt P16772 1-214; F5HET4 19-129)
T3 sequence (looked up) 1: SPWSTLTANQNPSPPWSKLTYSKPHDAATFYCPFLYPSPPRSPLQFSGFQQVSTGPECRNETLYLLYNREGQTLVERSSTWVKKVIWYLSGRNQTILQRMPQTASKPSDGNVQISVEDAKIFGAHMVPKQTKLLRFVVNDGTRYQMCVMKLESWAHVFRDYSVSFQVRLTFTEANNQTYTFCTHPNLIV
T3 sequence (looked up) 2: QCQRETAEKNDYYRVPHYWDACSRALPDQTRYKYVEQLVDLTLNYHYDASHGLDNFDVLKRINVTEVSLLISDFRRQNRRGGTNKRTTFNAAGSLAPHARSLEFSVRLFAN

[4] = target: T4, pUL128pUL130pUL131 (HEK293T cells transfected with the HCMV genes) (HCMV, UniProt P16837 1-171; P16772 1-214; F5HET4 19-129)
T4 sequence (looked up) 1: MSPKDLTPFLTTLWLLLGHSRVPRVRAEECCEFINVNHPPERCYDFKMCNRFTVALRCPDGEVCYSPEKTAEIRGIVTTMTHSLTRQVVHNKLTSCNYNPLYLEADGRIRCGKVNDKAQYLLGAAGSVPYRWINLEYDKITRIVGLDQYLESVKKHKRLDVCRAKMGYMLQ
T4 sequence (looked up) 2: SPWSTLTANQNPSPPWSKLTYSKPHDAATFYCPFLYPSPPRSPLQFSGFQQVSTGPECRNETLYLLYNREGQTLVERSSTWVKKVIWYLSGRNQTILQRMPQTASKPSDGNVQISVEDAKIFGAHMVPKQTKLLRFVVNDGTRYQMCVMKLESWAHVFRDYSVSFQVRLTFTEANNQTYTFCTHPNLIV
T4 sequence (looked up) 3: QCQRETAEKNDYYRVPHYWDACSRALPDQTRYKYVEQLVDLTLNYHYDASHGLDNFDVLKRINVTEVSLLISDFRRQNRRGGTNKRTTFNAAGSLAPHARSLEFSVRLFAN

B1: human monoclonal antibody 8I21 (antibody, V domains shown)
VH: LVELVESGGGVVQPGRSLRLSCAASGFTFSSDGMHWVRQSPGRGLEWVAFISSDGSTPYYADSVKGRFTISRDNSKNTLYLQMNSLRAEDTAMYFCAKDWALFRWLRTFDHWGQGTLVTVSS
VL: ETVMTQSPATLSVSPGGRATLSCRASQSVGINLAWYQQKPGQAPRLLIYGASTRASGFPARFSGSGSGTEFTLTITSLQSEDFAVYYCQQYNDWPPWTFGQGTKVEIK
In the case of B1, the “Log IC80, neutralization of HCMV infection of epithelial cells” value (“Log IC80, neutralization” for short) [1] is reported as -9.5 log IC80 (concentration unit not printed).

B2: human monoclonal antibody 15D8 (antibody, V domains shown)
VH: EVQLVQSGAEVKKPGESLKISCQASGYSFTNYWIAWVRQMPGKGLEWMGIIYPGDSDIKYSPSFRGQVTISADKSISNAFLQWRSLRASDTAMYYCARHAIRGDGFDYWGQGTLVTVSS
VL: SYELTQPPSVSVSPGQTATITCSGDKLGEKYACWYQQKPGQSPVLVMYQDTKRPSGIPERFSGSNSGNTATLTISGTRAMDEADYYCQAWDTNTVIFGGGTKLTVL
B2 was tested, and the “Log IC80, neutralization” value [2] was -11 log IC80 (concentration unit not printed).

B3: human monoclonal antibody 8L13 (antibody, V domains shown)
VH: QVQLLESGGGVVQPGRSLRLSCAASGFTFSNYGMHWVRQAPGKGLEWVAVIWNDGSKKYYAESVKGRFTISRDNSKNTVYLQMNSLRAEDTAVYYCARDEGVQMVFAMPDYGMDVWGQGTTVTVSS
VL: SYELTQPPSVSVSPGQTASITCSGDKLGDKFACWYQQRPGQSPILVIYQDSKRPSGIPERFSGSNSGNTATLTIRGTQAMDEADYYCQAWDSSTAHYVFGTGTKVTVL
For B3, the “Log IC80, neutralization” value [3] was -11.6 log IC80 (concentration unit not printed).

B4: human monoclonal antibody 8J16 (antibody, V domains shown)
VH: QVQLQESGPGLVKPSETLSLTCSVSGGFTSSYYWSWIRQAPGKGLEWIGYVYYGESTDYNPSLKSRATISIDTSKNQFSLKLSSVTAADTAVYYCAREVDKRGFDYWGQGALVTVSS
VL: EIVLTQSPGTLSLSPGERATLSCRASQSVSGGYLAWYQQEPGQAPRLVIYGASSRATGIPDRFSASGSGTDFTLTITRLEPEDFAVYYCQQYGRTPLTFGGGTKVEIK
With B4 the “Log IC80, neutralization” value [4] was -12.3 log IC80 (concentration unit not printed).

B5: human monoclonal antibody 10P3 (antibody, V domains shown)
VH: EVQLVESGGGLVRPGGSLRLSCAASGFTFHNYRMNWVRQAPGKGLEWVANIKQDGSEKSYVDSVRGRFTTSRDNSKNSLYLQINSLRAEDTAVYYCARGEGYTYGVVYSYSAMDVWGQGTTVIVSS
VL: SYELTQPPSVSVSPGQTARITCSGNVLPNQYASWYQQKPGQAPVLVIYKDTERPSGIPGRFSGSSSGTTVTLTISGVQAEDEADYYCQSADSSGADYVFGTGTKVTVL
B5 was tested, and the “Log IC80, neutralization” value [3] was -10.5 log IC80 (concentration unit not printed).

B6: human monoclonal antibody 7I13 (antibody, V domains shown)
VH: QVQLVESGGGVVQPGRSLRLSCAASGFTFSNYGMHWVRQGPGKGLEWVAVISYDASSKYYTDSVQGRFTISRDNSKNTLFLQMNSLRGEDTAVYYCAKALRYLDWFLSDPFDYWGQGTLVTVSS
VL: EIVLTQSPGTLSLSPGERATLSCRASQSVSSDFLAWYQQKPGQAPRLLIYGASSRATGIPDRFSGSGSGTDFTLTISRLEPEDFAVYYCQQYAASPPFGQGTRLEIK
For B6, the “Log IC80, neutralization” value [4] was -11 log IC80 (concentration unit not printed).

— US20170119874A1 (INSTITUTE FOR RESEARCH IN BIOMEDICINE, published 2017)
